The results in this text go back to patent publication US20260217793A1 (Chugai, published 2026).

Numbering of substitutions follows the chain as printed.

Sequences and labels used below:
T1: FcγRIIb extracellular domain with C-terminal His tag (human, UniProt P31994 43-217)
T1 sequence (looked up): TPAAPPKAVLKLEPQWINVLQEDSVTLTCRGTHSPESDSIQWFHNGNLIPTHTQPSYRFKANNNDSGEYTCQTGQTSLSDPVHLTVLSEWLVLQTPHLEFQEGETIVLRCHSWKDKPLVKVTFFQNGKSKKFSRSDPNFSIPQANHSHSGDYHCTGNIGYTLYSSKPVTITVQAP

T2: FcγRIIa type R extracellular domain with C-terminal His tag (human, UniProt P12318 34-217)
T2 sequence (looked up): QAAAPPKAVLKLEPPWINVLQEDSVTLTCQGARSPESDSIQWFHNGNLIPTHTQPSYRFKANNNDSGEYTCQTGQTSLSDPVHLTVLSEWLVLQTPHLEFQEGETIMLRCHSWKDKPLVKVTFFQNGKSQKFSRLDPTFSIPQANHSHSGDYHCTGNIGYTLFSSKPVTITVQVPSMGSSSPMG

T3: human FcγRIIb extracellular domain with C-terminal His tag (human, UniProt P31994 43-217)
T3 sequence (looked up): T1 sequence (looked up)

T4: human FcγRIIa type R (Arg131) extracellular domain with C-terminal His tag (human, UniProt P12318 34-217)
T4 sequence (looked up): T2 sequence (looked up)

T5: human FcγRIIa type H (His131) extracellular domain with C-terminal His tag (human, UniProt P12318 34-217)
T5 sequence (looked up): T2 sequence (looked up) with R134H

T6: FcγRIIa type H extracellular domain with C-terminal His tag (human, UniProt P12318 34-217)
T6 sequence (looked up): T2 sequence (looked up) with R134H

B1: IL6R-BP262/IL6R-L (antibody, human IgG1, kappa)
heavy: QVQLQESGPGLVKPSETLSLTCAVSGHSISHDHAWSWVRQPPGEGLEWIGFISYSGITNYNPSLQGRVTISRDNSKNTLYLQMNSLRAEDTAVYYCARSLARTTAMDYWGEGTLVTVSSASTKGPSVFPLAPSSKSTSGGTAALGCLVKDYFPEPVTVSWNSGALTSGVHTFPAVLQSSGLYSLSSVVTVPSSSLGTQTYICNVNHKPSNTKVDKKVEPKSCDKTHTCPPCPAPELLGDDSVFLFPPKPKDTLMISRTPEVTCVVVDVSEEDGEVKFNWYVDGVEVHNAKTKPREEQYNSTYRVVSVLTVLHQDWLNGKEYKCKVSNKALPAPIEKTISKAKGQPREPQVYTLPPSRDELTKNQVSLTCLVKGFYPSDIAVEWESNGQPENNYKTTPPVLDSDGSFFLYSKLTVDKSRWQQGNVFSCSVMHEALHNHYTQESLSLSP
light: not shown
B2: IL6R-BP269/IL6R-L (antibody, human IgG1, kappa)
heavy: B1 heavy with Y298D
light: not shown
B3: IL6R-BP481/IL6R-L (antibody, human IgG1, kappa)
heavy: B1 heavy with E235D, V266I, S269A
light: not shown
B4: IL6R-BP484/IL6R-L (antibody, human IgG1, kappa)
heavy: B1 heavy with E235D, S269A, E271D
light: not shown
B5: IL6R-BP497/IL6R-L (antibody, human IgG1, kappa)
heavy: B1 heavy with E235D, V266I, S269A, A329G, A332R
light: not shown
B6: IL6R-BP499/IL6R-L (antibody, human IgG1, kappa)
heavy: B1 heavy with E235D, V266I, S269A, Y298D, A332R, P398L
light: not shown
B7: IL6R-BP479/IL6R-L (antibody, human IgG1, kappa)
heavy: B1 heavy with E235D, V266I, V268L, S269A
light: not shown
B8: IL6R-BP543/IL6R-L (antibody, human IgG1, kappa)
heavy: B1 heavy with E235D, E270Q, Y298D, A332R
light: not shown
B9: IL6R-BP544/IL6R-L (antibody, human IgG1, kappa)
heavy: B1 heavy with E235D, E270D, Y298D, A332R, R357Q
light: not shown
B10: IL6R-BP541/IL6R-L (antibody, human IgG1, kappa)
heavy: B1 heavy with E235D, E270D, K276Q, Y298D, A332R
light: not shown
B11: IL6R-BP546/IL6R-L (antibody, human IgG1, kappa)
heavy: B1 heavy with E235D, E270D, Y298D, A332R, L360M
light: not shown
B12: IL6R-BP560/IL6R-L (antibody, human IgG1, kappa)
heavy: B1 heavy with D239G, S269G, Y298D, A332R
light: not shown
B13: IL6R-BP564/IL6R-L (antibody, human IgG1, kappa)
heavy: B1 heavy with E274D, Y298D, A332R
light: not shown
B14: IL6R-BP549/IL6R-L (antibody, human IgG1, kappa)
heavy: B1 heavy with S269G, A332R
light: not shown
B15: IL6R-BP559/IL6R-L (antibody, human IgG1, kappa)
heavy: B1 heavy with D239G, V266I, S269A, E274D, Y298D
light: not shown
B16: IL6R-BP562/IL6R-L (antibody, human IgG1, kappa)
heavy: B1 heavy with E270D, E274D, Y298D, A332R
light: not shown
B17: IL6R-BP557/IL6R-L (antibody, human IgG1, kappa)
heavy: B1 heavy with S269G, E270D, Y298D, A332R
light: not shown
B18: IL6R-BP230/IL6R-L (antibody, human IgG1, kappa)
heavy: B1 heavy with E235D, E270D, Y298D, A332R
light: not shown
B19: IL6R-BP547/IL6R-L (antibody, human IgG1, kappa)
heavy: B1 heavy with E235D, E270D, Y298D, A332R, K411R
light: not shown
B20: IL6R-BP545/IL6R-L (antibody, human IgG1, kappa)
heavy: B1 heavy with E235D, E270D, Y298D, A332R, D358E
light: not shown
B21: IL6R-BP542/IL6R-L (antibody, human IgG1, kappa)
heavy: B1 heavy with E235D, E270D, Y298F, A332R
light: not shown

Sequence of FcγRIIIa type V extracellular domain with C-terminal His tag (P08637 17-208 F176V): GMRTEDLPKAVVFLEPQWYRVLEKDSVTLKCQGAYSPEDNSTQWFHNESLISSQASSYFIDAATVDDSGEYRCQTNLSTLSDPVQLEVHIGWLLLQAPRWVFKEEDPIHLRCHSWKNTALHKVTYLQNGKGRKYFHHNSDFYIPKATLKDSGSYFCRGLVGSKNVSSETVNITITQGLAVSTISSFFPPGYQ

The target in the first assay is T1, FcγRIIb extracellular domain with …. Put plainly: ratio of SPR KDs, FcγRIIaH over FcγRIIb, same variant.
Consider B1, for which the “KD (IIaH)/KD (IIb)” value turned out to be 375.

As for B2, the “KD (IIaH)/KD (IIb)” value is 637.

With B3, the “KD (IIaH)/KD (IIb)” value was 350.

Regarding B4, the “KD (IIaH)/KD (IIb)” value was found to be 241.

For the molecule B5, the “KD (IIaH)/KD (IIb)” value was 236.

Take B6: the “KD (IIaH)/KD (IIb)” value is 685.

For B7, the “KD (IIaH)/KD (IIb)” value is 268.

A further assay has the same target. Kind of assay: ratio of SPR KDs, FcγRIIaR over FcγRIIb, same variant.
With B8, the “KD (IIaR)/KD (IIb)” value stood at 27.3.

In the case of B9, the “KD (IIaR)/KD (IIb)” value came to 28.8.

As to B10, the “KD (IIaR)/KD (IIb)” value came out at 27.8.

B11: the “KD (IIaR)/KD (IIb)” value worked out at 32.8.

The next assay has the same target. Put plainly: ratio of SPR KDs vs IL6R-B3/IL6R-L.
In the case of B8, the “KD (IIb) of parent polypeptide/KD (IIb) of altered polypeptide” value (“KD (IIb) of parent polypeptide/KD” for short) is 152.

On to B9, for which the “KD (IIb) of parent polypeptide/KD” value came to 184.

Turning to B10, the “KD (IIb) of parent polypeptide/KD” value is 190.

Regarding B11, the “KD (IIb) of parent polypeptide/KD” value worked out at 205.

A further assay deals with T2, FcγRIIa type R extracellular domain …. Kind of assay: ratio of SPR KDs vs IL6R-B3/IL6R-L.
Take B8: the “KD (IIaR) of parent polypeptide/KD (IIaR) of altered polypeptide” value (from here on “KD (IIaR) of parent polypeptide/KD”) worked out at 1.9.

As for B9, the “KD (IIaR) of parent polypeptide/KD” value stood at 2.2.

Regarding B10, the “KD (IIaR) of parent polypeptide/KD” value came out at 2.4.

Consider B11, for which the “KD (IIaR) of parent polypeptide/KD” value was found to be 2.2.

For the next assay, the target named is T3, human FcγRIIb extracellular domain with …. Put plainly: SPR. A general note: Surface plasmon resonance follows binding to a sensor surface in real time, without labels.
As to B12, the “KD (IIb) of parent polypeptide/KD” value turned out to be 16.8.

In the case of B13, the “KD (IIb) of parent polypeptide/KD” value turned out to be 141.

As for B14, the “KD (IIb) of parent polypeptide/KD” value is 196.

With B15, the “KD (IIb) of parent polypeptide/KD” value was 110.

Regarding B16, the “KD (IIb) of parent polypeptide/KD” value came to 131.

Another assay concerns the target T4, human FcγRIIa type R (Arg131) …. Kind of assay: SPR.
With B12, the “KD (IIaR) of parent polypeptide/KD” value came to 0.3.

For the molecule B13, the “KD (IIaR) of parent polypeptide/KD” value worked out at 1.9.

As to B14, the “KD (IIaR) of parent polypeptide/KD” value worked out at 1.9.

With B15, the “KD (IIaR) of parent polypeptide/KD” value stood at 0.7.

Consider B16, for which the “KD (IIaR) of parent polypeptide/KD” value was found to be 1.6.

In a further assay the target is T1, FcγRIIb extracellular domain with …. Put plainly: ratio of SPR KDs vs IL6R-B3/IL6R-L. This is another data set of the same source.
With B1, the “KD (IIb) of parent polypeptide/KD” value stood at 25.8.

As for B2, the “KD (IIb) of parent polypeptide/KD” value came out at 27.4.

Consider B3, for which the “KD (IIb) of parent polypeptide/KD” value was 160.

For the molecule B4, the “KD (IIb) of parent polypeptide/KD” value came to 67.8.

As to B5, the “KD (IIb) of parent polypeptide/KD” value is 764.

For the molecule B6, the “KD (IIb) of parent polypeptide/KD” value is 2120.

For B7, the “KD (IIb) of parent polypeptide/KD” value was determined as 55.5.

The next assay has as its target T2, FcγRIIa type R extracellular domain …. Put plainly: ratio of SPR KDs vs IL6R-B3/IL6R-L. This is another data set of the same source.
As to B1, the “KD (IIaR) of parent polypeptide/KD” value came to 0.5.

On to B2, for which the “KD (IIaR) of parent polypeptide/KD” value was 0.5.

In the case of B3, the “KD (IIaR) of parent polypeptide/KD” value was 2.8.

As for B4, the “KD (IIaR) of parent polypeptide/KD” value amounted to 1.4.

As for B6, the “KD (IIaR) of parent polypeptide/KD” value was 22.3.

For the molecule B7, the “KD (IIaR) of parent polypeptide/KD” value is 1.2.

A further assay deals with human FcγRIIIa type V (Val158) extracellular domain with C-terminal His tag (human, UniProt P08637 17-208). Kind of assay: SPR.
Sequence of human FcγRIIIa type V (Val158) extracellular domain with C-terminal His tag (P08637 17-208 F176V): as above
In general, Kd refers to the free concentration of one partner at which half of the binding sites on the other are occupied at equilibrium, for simple one-to-one binding. Molecule B12 had a Kd of 41 µM.

As for B13, the Kd was 49 µM.

Regarding B14, the Kd came out at 24 µM.

In the case of B15, the Kd amounted to 44 µM.

B17: the Kd was found to be 29 µM.

Consider B16, for which binding was put at a Kd of 53 µM.

In a further assay the target is T5, human FcγRIIa type H (His131) …. Kind of assay: SPR.
B12 showed a Kd of 31 µM.

As to B13, binding was characterised by a dissociation constant (Kd) of 10 µM.

Consider B14, for which the Kd came out at 11 µM.

In the case of B15, the Kd stood at 20 µM.

Take B17: the Kd was 15 µM.

B16 came in with a Kd of 11 µM.

A further assay concerns the target T1, FcγRIIb extracellular domain with …. Kind of assay: ratio of SPR KDs, FcγRIIaR over FcγRIIb, same variant. This is another data set of the same source.
B1: the “KD (IIaR)/KD (IIb)” value came out at 17.

Take B2: the “KD (IIaR)/KD (IIb)” value was found to be 19.6.

Regarding B3, the “KD (IIaR)/KD (IIb)” value was 20.5.

As to B4, the “KD (IIaR)/KD (IIb)” value is 17.1.

In the case of B5, the “KD (IIaR)/KD (IIb)” value was 21.

Consider B6, for which the “KD (IIaR)/KD (IIb)” value came out at 33.8.

Regarding B7, the “KD (IIaR)/KD (IIb)” value came out at 16.1.

The next assay has as its target FcγRIIIa type V extracellular domain with C-terminal His tag (human, UniProt P08637 17-208). Kind of assay: SPR.
B18 came in with a Kd of 39 µM.

In the case of B19, the Kd turned out to be 35 µM.

The molecule B20 returned a dissociation constant (Kd) of 45 µM.

B8 yielded a Kd of 46 µM.

Take B9: binding was characterised by a dissociation constant (Kd) of 45 µM.

B10 had a Kd of 41 µM.

Consider B21, for which the affinity, expressed as Kd, was 43 µM.

B11: the Kd worked out at 37 µM.

The next assay addresses T6, FcγRIIa type H extracellular domain …. Kind of assay: SPR.
Consider B18, for which binding was put at a Kd of 9.7 µM.

For the molecule B19, binding was characterised by a dissociation constant (Kd) of 7.5 µM.

B20: the Kd amounted to 9.1 µM.

In the case of B8, the Kd is 7.4 µM.

Take B9: the dissociation constant Kd came to 12 µM.

For B10, binding was characterised by a dissociation constant (Kd) of 9.3 µM.

In turn, B21 returned a Kd of 9.7 µM.

In turn, B11 displayed a Kd of 10 µM.
